# Measurements: patent publication US20240376185A1
# Experiments:
# horse IgG Fab fragment = experiment: ELISA, coated antigen, E. coli supernatant
# bovine IgG = experiment: ELISA, coated antigen, E. coli supernatant
# horse IgG Fc fragment = experiment: ELISA, coated antigen, E. coli supernatant
# guinea pig IgG = experiment: ELISA, coated antigen, E. coli supernatant
# dog IgG = experiment: ELISA, coated antigen, E. coli supernatant
# human IgG = experiment: ELISA, coated antigen, E. coli supernatant
# dog IgG Fab fragment = experiment: ELISA, coated antigen, E. coli supernatant
# swine IgG = experiment: ELISA, coated antigen, E. coli supernatant
# horse IgG = experiment: ELISA, coated antigen, E. coli supernatant (no SDA 0.255, 0.261)
# [1] = target: human serum albumin (human) (UniProt P02768); experiment: ELISA, coated albumin, E. coli supernatant
# dog serum albumin (dog) = dog serum albumin (dog) (UniProt P49822); experiment: ELISA, coated albumin, E. coli supernatant
# dog serum albumin (dog), sequence (P49822 25-608): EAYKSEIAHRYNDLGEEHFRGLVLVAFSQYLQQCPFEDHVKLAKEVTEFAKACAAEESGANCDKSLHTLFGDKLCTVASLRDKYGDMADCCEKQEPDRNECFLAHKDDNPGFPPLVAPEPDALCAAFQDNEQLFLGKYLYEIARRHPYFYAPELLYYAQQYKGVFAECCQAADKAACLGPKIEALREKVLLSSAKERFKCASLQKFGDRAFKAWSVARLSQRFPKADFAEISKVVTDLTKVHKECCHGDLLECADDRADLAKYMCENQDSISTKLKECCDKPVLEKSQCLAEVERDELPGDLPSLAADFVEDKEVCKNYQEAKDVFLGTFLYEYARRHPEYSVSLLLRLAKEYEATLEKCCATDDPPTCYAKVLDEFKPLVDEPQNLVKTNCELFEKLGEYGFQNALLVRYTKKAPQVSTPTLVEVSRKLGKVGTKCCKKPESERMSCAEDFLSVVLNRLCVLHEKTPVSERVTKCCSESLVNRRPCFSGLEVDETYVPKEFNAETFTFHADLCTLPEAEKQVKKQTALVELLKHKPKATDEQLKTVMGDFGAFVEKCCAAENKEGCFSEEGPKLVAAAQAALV
# [2] = target: horse serum albumin (horse) (UniProt P35747); experiment: ELISA, coated albumin, E. coli supernatant
# horse serum albumin (horse), sequence (P35747 25-607): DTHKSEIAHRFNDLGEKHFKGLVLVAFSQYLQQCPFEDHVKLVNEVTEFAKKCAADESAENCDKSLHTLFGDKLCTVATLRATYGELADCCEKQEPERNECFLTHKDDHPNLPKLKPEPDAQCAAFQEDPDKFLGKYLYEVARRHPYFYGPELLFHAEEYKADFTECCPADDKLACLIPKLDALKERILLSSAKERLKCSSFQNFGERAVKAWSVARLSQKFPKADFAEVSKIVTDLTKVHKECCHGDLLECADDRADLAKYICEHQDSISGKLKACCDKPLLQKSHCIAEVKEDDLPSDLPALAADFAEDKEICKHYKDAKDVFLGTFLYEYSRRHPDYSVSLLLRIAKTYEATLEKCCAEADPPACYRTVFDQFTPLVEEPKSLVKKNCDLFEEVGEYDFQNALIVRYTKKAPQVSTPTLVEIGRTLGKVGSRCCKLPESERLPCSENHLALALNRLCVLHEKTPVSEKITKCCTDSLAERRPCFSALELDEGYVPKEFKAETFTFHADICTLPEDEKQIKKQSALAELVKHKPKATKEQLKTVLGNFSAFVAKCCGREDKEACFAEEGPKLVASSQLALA
Binder,absorbance at 450 nm (horse IgG Fab fragment) [A450],absorbance at 450 nm (bovine IgG) [A450],absorbance at 450 nm (horse IgG Fc fragment) [A450],absorbance at 450 nm (guinea pig IgG) [A450],absorbance at 450 nm (dog IgG) [A450],absorbance at 450 nm (human IgG) [A450],absorbance at 450 nm (dog IgG Fab fragment) [A450],absorbance at 450 nm (swine IgG) [A450],absorbance at 450 nm (horse IgG) [A450],absorbance at 450 nm [1] [A450],absorbance at 450 nm (dog serum albumin (dog)) [A450],absorbance at 450 nm [2] [A450]
"SVG03 (VHH, not shown: large carriers) VHH: QVQLQESGGGLVQAGGSLRLSCAASGRTFSNYVMGWFRQAPGKEREFVSAISWNGVSTFYADSVKGRFTISRDNAKNTVYLQMNSLKPEDTAVYYCAADERFVVRYNYWGQGTQVTVSS",0.057,0.061,0.476,0.063,0.07,0.076,0.054,0.075,1.1,,,
SVG13 (VHH) VHH: QVQLQESGGGLVQPGGSLRLSCEASGFTFDDYGMSWVRQAPGKGLEWVSSLTPNGGSTYYADSVKGRFTISRDNAKNTLYLQMNSLKPEDTALYYCAKNSYYGAMDYWGKGTLVTVSS,0.222,0.272,0.097,0.579,0.693,0.524,0.59,0.195,0.436,,,
"SVG07 (VHH, not shown: large carriers) VHH: QVQLQESGPGLVKPSQTLSLTCTVSGGSITTTAYAWSWIRQPPGKGLEWMGAIRFDGTTDYSPSLKSRISISRDTSNNQFSLRMSSVTPEDTAVYYCARYGVVSDHGGLDYWGQGTQVTVSS",0.152,0.121,0.099,0.249,0.479,0.17,0.454,0.103,0.401,,,
"SVG23 (VHH, not shown: large carriers) VHH: QVQLQESGGGLVQAGGSLRLSCAASGRAFGSYTMNWFRQAPGKERDFVAGIMSSGMNTWYADSVKGRFTISRDNAKNTVYLQMNSLKPEDTAVYYCASRPRSTMTSGRYLYDYWGQGTQVTVSS",0.056,0.062,0.072,0.068,1.74,0.073,0.061,0.092,0.26,,,
SVA12 (VHH) VHH: QVQLQESGGRLVQAEDSLRLSCAASGRTFVSYDMGWFRQAPGKEREFVAAINWRGYTTDYVDSVKGRFFISRDIAKSTVYLQMNNLKPEDTAVYYCAARQMSGSSRYSPPGRVGYDFWGQGTQVTVSS,,,,,,,,,,0.057,1.77,2
"SVG19 (VHH, not shown: large carriers) VHH: QVQLQQSGGGLVQPGGSLRLSCAASGFTFSSYAMSWVRQAPGKGLEWVSAINSGGGSTSYADSVKGRFTISRDNAKNTLYLQMNSLKPEDTAVYYCAKDFDPWGVGTGGYDYWGQGTQVTVSS",0.472,0.453,0.079,0.435,1.02,0.309,1.22,0.146,0.681,,,
"SVG24 (VHH, not shown: large carriers) VHH: QVQLQQSGGGLVQAGGSLRLSCAASGRTFSTYNIAWFRQAPGKEREFVTAITWGSGNTYYADSVKGRFTISRDNAKNTVFLQMNSLKPDDTAVYYCAARRSLGPTMAFAYEYWGQGTQVTVSS",0.06,0.075,1.67,0.068,1.74,0.084,0.074,0.341,0.765,,,
"SVG18 (VHH, not shown: large carriers) VHH: QVQLQQSGGGLVQPGGSLRLSCAASGFTFSSYAMSWVRQAPGKGLEWVSAINSGGDIISYADSVKGRFTISRDNAKNTLYLQMNSLKPEDTAVYYCAKSPIVRTYGGYDYWGQGTQVTVSS",0.32,0.124,0.072,0.174,1,0.096,1.36,0.097,0.478,,,
"SVA04 (VHH, not shown: large carriers) VHH: QVQLQQSGGGLVQAGGSLRLACAASGRTLSSYVMGWFRQAPGKEREFVAAISWSGGSTYYADSVKGRFTISRDNAKNTVYLQMNSLKPEDTAVYYCAATLRGSNRYYSGRVYDYWGQGTQVTVSS",,,,,,,,,,,1.53,
SVG06 (VHH) VHH: QVQLQESGGALVQPGGSLRLSCAASGFPFSAYDMTWVRQAPGQGLEWVSTIHKSGGITTYADSVKGRFTISRDNAKNTLYLQMNNLESEDTAVYYCAKALRAHNSDYVGRNALGSWGEGTLVTVSS,0.089,0.172,0.073,0.204,0.277,0.365,0.178,0.131,0.325,,,
